In EP2246362B1, “Polymer conjugates of mutated neublastin” (Biogen Idec MA Inc., priority 2003, dated 2004):
Like-named read-outs stand apart in the source and are kept apart here.

Assays:
[1] = target: T1, c-Ret on NB41A3-mRL3 cells (UniProt P35546 29-1115, limits assumed); test: cell-based or functional assay
[2] = target: T1, c-Ret on NB41A3-mRL3 cells; test: cell-based or functional assay; remark: listed apart in the source
[3] = design: species or system mice; conditions: mouse, in vivo, sc
From the text: The pharmokinetic properties of various PEGylated and non-PEGylated mutated neublastin products in rat and mouse models were examined (see Table 8 for summary of results). The analysis of the PEGylated […] samples are complicated by the presence of adducts comprising 2, 3 and 4 PEGs per molecule, which each will display a different PK profile. In early PK studies, mice were used to facilitate screening through a variety of candidates and routes of administration. […] This difference in bioavailability was particularly pronounced following i.p. administration. Levels in mice reached 1600 ng/mL after 7 hr and remained at 400 ng/mL after 24 hr. In contrast, rat levels were constant at 100 ng/mL for 4-48 hr. Two surprising and unexpected results emerged from the PK studies summarized in Table 8: 1) PEGylation of the amino-terminal amino acids of non-glycosylated neublastin was not sufficient to increase serum exposure substantially, and 2) PEGylation of the amino-terminal amino acid(s) of neublastin together with modification (e.g. PEGylation or glycosylation) of amino acid 95 was sufficient to increase serum exposure substantially.

c-Ret = target: T2, c-Ret (Mus musculus, UniProt O35118+P35546); test: Kinase Receptor Activation (KIRA) ELISA: neublastin dependent phosphorylation of c-Ret in NB41A3-mRL3 cells; assay type: cell-based, murine; conditions: for KIRA: ~Max Efficacy vs WT: relative to wild-type, NB41A3-mRL3 cells; for activity / potency in the KIRA ELISA (in words): compared with wild-type NBN113 / mature form
T2 construct: NB41A3-mRL3 cells, an adherent murine neuroblastoma cell line which expresses Ret and GFRα3; endogenous in cells; host or cells: NB41A3-mRL3 (murine neuroblastoma)
T2 sequence (P35546 29-1115): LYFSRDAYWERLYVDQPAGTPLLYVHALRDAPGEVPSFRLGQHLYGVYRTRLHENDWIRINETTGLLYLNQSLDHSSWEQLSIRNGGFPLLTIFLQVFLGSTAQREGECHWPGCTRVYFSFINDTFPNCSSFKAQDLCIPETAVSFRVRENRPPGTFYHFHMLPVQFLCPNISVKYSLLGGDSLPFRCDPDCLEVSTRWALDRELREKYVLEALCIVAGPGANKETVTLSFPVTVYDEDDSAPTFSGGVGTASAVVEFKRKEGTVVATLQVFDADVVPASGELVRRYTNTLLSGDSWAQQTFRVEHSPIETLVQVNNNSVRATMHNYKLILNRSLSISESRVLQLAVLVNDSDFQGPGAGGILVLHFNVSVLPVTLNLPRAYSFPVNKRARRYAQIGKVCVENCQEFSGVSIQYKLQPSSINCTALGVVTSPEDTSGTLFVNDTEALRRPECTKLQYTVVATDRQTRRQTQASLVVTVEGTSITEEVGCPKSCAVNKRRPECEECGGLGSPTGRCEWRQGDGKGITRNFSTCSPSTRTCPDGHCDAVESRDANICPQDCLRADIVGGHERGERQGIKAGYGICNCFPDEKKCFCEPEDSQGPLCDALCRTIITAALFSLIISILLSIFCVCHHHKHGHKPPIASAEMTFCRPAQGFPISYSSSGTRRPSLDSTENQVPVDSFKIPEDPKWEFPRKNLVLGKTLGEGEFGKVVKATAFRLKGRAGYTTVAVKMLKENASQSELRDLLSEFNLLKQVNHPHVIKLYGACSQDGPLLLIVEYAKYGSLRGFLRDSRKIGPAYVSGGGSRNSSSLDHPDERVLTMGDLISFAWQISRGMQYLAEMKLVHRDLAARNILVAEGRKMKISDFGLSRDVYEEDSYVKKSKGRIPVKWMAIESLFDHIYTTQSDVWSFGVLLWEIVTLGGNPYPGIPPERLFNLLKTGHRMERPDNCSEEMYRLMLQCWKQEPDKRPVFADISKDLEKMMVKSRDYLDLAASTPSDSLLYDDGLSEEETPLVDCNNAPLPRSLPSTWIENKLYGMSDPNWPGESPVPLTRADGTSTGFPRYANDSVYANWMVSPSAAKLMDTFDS
T2 sequence (O35118 29-397): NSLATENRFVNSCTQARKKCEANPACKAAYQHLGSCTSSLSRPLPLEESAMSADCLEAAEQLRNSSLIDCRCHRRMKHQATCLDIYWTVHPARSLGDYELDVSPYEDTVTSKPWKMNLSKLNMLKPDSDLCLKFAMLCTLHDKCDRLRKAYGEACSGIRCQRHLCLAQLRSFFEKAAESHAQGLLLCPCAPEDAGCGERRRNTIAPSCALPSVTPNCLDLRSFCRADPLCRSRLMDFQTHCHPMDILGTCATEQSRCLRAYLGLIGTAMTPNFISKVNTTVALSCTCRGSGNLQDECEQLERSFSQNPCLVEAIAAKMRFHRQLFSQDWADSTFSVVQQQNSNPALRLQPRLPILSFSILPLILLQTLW
Protocol: The potency of PEGylated mutated rat neublastin was measured using neublastin dependent activation/ phosphorylation of c-Ret as a reporter for neublastin activity in an ELISA that was specific for the presence of phosphorylated RET. NB41A3-mRL3 cells, an adherent murine neuroblastoma cell line which expresses Ret and GFRα3, were plated at 2 x 10^5 cells per well in 24-well plates in Dulbecco's modified eagle medium (DMEM), supplemented with 10 % fetal bovine serum, and cultured for 18 h at 37 °C and 5 % CO2.
The cells were washed with PBS, and treated with serial dilutions of neublastin in 0.25 mL of DMEM for 10 min at 37°C and 5 % CO2. Each sample was analyzed in duplicate. The cells were washed with 1 mL of PBS, and lysed for 1h at 4 °C with 0.30 mL of 10 mM Tris HC1, pH 8.0, 0.5 % Nonidet P40, 0.2 % sodium deoxycholate, 50 mM NaF, 0.1 mM Na3 VO4,1 mM phenylmethylsulfonyl fluoride with gently rocking the plates. The lysates were further agitated by repeated pipetting and 0.25 mL of sample was transferred to a 96-well ELISA plate that had been coated with 5 µg/mL of anti-Ret mAb (AA.GE7.3) in 50 mM carbonate buffer, pH 9.6 at 4°C for 18 h, and blocked at room temperature for one hour with block buffer (20 mM Tris HC1 pH 7.5, 150 mM NaCl, 0.1% Tween-20 (TBST) containing 1 % normal mouse serum and 3 % bovine serum albumin).
After a 2 h incubation at room temperature, the wells were washed 6-times with TBST. Phosphorylated Ret was detected by incubating the wells at room temperature for 2 h with 2 µg/mL of horseradish peroxidase (HRP)-conjugated anti-phosphotyrosine 4G10 antibody in block buffer, washing 6-times with TBST, and measuring HRP activity at 450 nm with a colorometric detection reagent. The absorbance values from wells treated with lysate or with lysis buffer were measured and the background corrected signal was plotted as a function of the concentration of neublastin present in the activation mixture.
Neublastin activity was determined by its ability to stimulate c-Ret phosphorylation in NB41A3-mRL3 cells using the KIRA ELISA described in Example 3. Phosphorylated Ret was detected by incubating (2 hours) the captured receptor with HRP-conjugated phosphotyrosine antibody (4G10; 0.2 µg per well). Following the incubation, the wells were washed six times with TBST, and the HRP activity detected at 450 nm with a colorimetric assay. The absorbance values from wells treated with lysate or with lysis buffer alone were measured, background corrected, and the data plotted as a function of the concentration of neublastin present in the activation mixture.

[4] = target: T1, c-Ret on NB41A3-mRL3 cells; test: cell-based or functional assay; remark: listed apart in the source
[5] = estimated EC50, NB41A3-mRL3 cells

T1 sequence (P35546 29-1115 limits assumed): as the sequence (P35546 29-1115) above

| Molecule | KIRA: ∼EC50 [2] [nM] | KIRA: ∼Max Efficacy vs WT [2] [%] | Exposure in Mice After s.c. Administration [3] | further results |
| --- | --- | --- | --- | --- |
| NBN104 (CHO) (from UniProt Q5T4W7 117-220) (ligand) | – | – | – | KIRA: ∼EC50 [1]: 0.7 nM; KIRA: ∼Max Efficacy vs WT [1]: 90% |
| 2 X 20 kDa PEG-NBN104 (CHO) (from UniProt Q5T4W7 117-220) (ligand) | – | – | – | KIRA: ∼EC50 [1]: 1 nM; KIRA: ∼Max Efficacy vs WT [1]: 105% |
| BSA-conjugated neublastin (monosubstituted product) (from UniProt P02769 25-607) | – | – | – | IC50 in the KIRA ELISA [1]: 3 to 6 nM |
| 1 X 20 kDa PEG-NBN104 (CHO) (from UniProt Q5T4W7 117-220) (ligand) | – | – | – | KIRA: ∼EC50 [1]: 0.3 nM; KIRA: ∼Max Efficacy vs WT [1]: 110% |
| 2 X 10 kDa PEG-NBN (ligand, 10 kDa PEG on amino acid 1 of each chain (PEGylated amino acids 1,1)) AGTRSSRARATDARGCRLRSQLVPVSALGLGHSSDELIRFRFCSGSCRRARSPHDLSLASLLGAGALRSPPGSRPISQPCCRPTRYEAVSFMDVNSTWRTVDHLSATACGCLG | ~0.2 | ~72 | – | – |
| 2 X 20 kDa PEG-NBN (ligand, 20 kDa PEG on amino acid 1 of each chain (cell printed '1,1 1')) AGTRSSRARATDARGCRLRSQLVPVSALGLGHSSDELIRFRFCSGSCRRARSPHDLSLASLLGAGALRSPPGSRPISQPCCRPTRYEAVSFMDVNSTWRTVDHLSATACGCLG | ~0.6 | ~80 | – | – |
| 2 X 20 kDa PEG-NBN: E. coli derived NBN113 dimer with two 20 kDa PEGs at amino acids 1,1 (conjugate) AGTRSSRARATDARGCRLRSQLVPVSALGLGHSSDELIRFRFCSGSCRRARSPHDLSLASLLGAGALRSPPGSRPISQPCCRPTRYEAVSFMDVNSTWRTVDHLSATACGCLG | – | – | + | serum exposure after s.c. administration (in words) [3]: low-to-moderate serum exposure |
| 1 X 20 kDa Branched PEG-NBN (ligand, one 20 kDa branched PEG per dimer, on amino acid 1 of one chain (PEGylated amino acids: 1)) AGTRSSRARATDARGCRLRSQLVPVSALGLGHSSDELIRFRFCSGSCRRARSPHDLSLASLLGAGALRSPPGSRPISQPCCRPTRYEAVSFMDVNSTWRTVDHLSATACGCLG | ~0.2 | ~83 | – | – |
| 2 X 5 kDa PEG-NBN (ligand, 5 kDa PEG on amino acid 1 of each chain (PEGylated amino acids 1,1)) AGTRSSRARATDARGCRLRSQLVPVSALGLGHSSDELIRFRFCSGSCRRARSPHDLSLASLLGAGALRSPPGSRPISQPCCRPTRYEAVSFMDVNSTWRTVDHLSATACGCLG | ~0.2 | ~105 | – | – |
| 1 X 20 kDa PEG-NBN104 (CHO): CHO derived NBN104 dimer glycosylated at 95,95 with one 20 kDa PEG at amino acid 1 (conjugate) AAGARGCRLRSQLVPVRALGLGHRSDELVRFRFCSGSCRRARSPHDLSLASLLGAGALRPPPGSRPVSQPCCRPTRYEAVSFMDVNSTWRTVDRLSATACGCLG | – | – | ++ | serum exposure after s.c. administration (in words) [3]: high serum exposure; EC50 (c-Ret; [5]): 0.3 nM; KIRA: ~Max Efficacy vs WT (c-Ret): 110% |
| 2 X 20 kDa PEG-NBN104 (CHO): CHO derived NBN104 dimer glycosylated at 95,95 with two 20 kDa PEGs at amino acids 1,1 (conjugate) AAGARGCRLRSQLVPVRALGLGHRSDELVRFRFCSGSCRRARSPHDLSLASLLGAGALRPPPGSRPVSQPCCRPTRYEAVSFMDVNSTWRTVDRLSATACGCLG | – | – | ++ | serum exposure after s.c. administration (in words) [3]: high serum exposure; EC50 (c-Ret; [5]): 1 nM; KIRA: ~Max Efficacy vs WT (c-Ret): 105% |
| 3 X 10 kDa PEG-WT/N95K-NBN106 (ligand, 10 kDa PEG on the amino-terminal amino acid and on Lys95; 10 kDa PEG on the amino-terminal amino acid) chain 1: ARATDARGCRLRSQLVPVSALGLGHSSDELIRFRFCSGSCRRARSPHDLSLASLLGAGALRSPPGSRPISQPCCRPTRYEAVSFMDVNSTWRTVDHLSATACGCLG chain 2: ARATDARGCRLRSQLVPVSALGLGHSSDELIRFRFCSGSCRRARSPHDLSLASLLGAGALRSPPGSRPISQPCCRPTRYEAVSFMDVKSTWRTVDHLSATACGCLG | ~0.7 | ~115 | – | – |
| 2 X 20 kDa Branched PEG NBN106-N95K: NBN106-N95K dimer with two branched 20 kDa PEGs at amino acids 1,95 (conjugate) ARATDARGCRLRSQLVPVSALGLGHSSDELIRFRFCSGSCRRARSPHDLSLASLLGAGALRSPPGSRPISQPCCRPTRYEAVSFMDVKSTWRTVDHLSATACGCLG | – | – | ++ | KIRA: ~EC50 (c-Ret; [5]): inactive; KIRA: ~Max Efficacy vs WT (c-Ret): inactive |
| 3 X 10 kDa PEG-WT/ N95K-NBN106: wild-type/N95K NBN106 heterodimer with three 10 kDa PEGs at amino acids 1,1,95 (conjugate) chain 1: ARATDARGCRLRSQLVPVSALGLGHSSDELIRFRFCSGSCRRARSPHDLSLASLLGAGALRSPPGSRPISQPCCRPTRYEAVSFMDVNSTWRTVDHLSATACGCLG chain 2: ARATDARGCRLRSQLVPVSALGLGHSSDELIRFRFCSGSCRRARSPHDLSLASLLGAGALRSPPGSRPISQPCCRPTRYEAVSFMDVKSTWRTVDHLSATACGCLG | – | – | ++ | – |
| 4 X 10 kDa PEG NHN106-N95K: homodimer of NBN106-N95K conjugated to four 10 kDa PEG moieties (conjugate) ARATDARGCRLRSQLVPVSALGLGHSSDELIRFRFCSGSCRRARSPHDLSLASLLGAGALRSPPGSRPISQPCCRPTRYEAVSFMDVKSTWRTVDHLSATACGCLG | – | – | ++ | fold less potent than non-mutated (wild-type) NBN113 in activating Ret (c-Ret): approximately 10 fold; activity / potency in the KIRA ELISA (in words) (c-Ret): reduced potency |
| 3 X 10 kDa PEG NBN106-N95K (ligand, three 10 kDa PEG per dimer: on both amino-terminal amino acids and on one Lys95 (PEGylated amino acids 1,1,95)) ARATDARGCRLRSQLVPVSALGLGHSSDELIRFRFCSGSCRRARSPHDLSLASLLGAGALRSPPGSRPISQPCCRPTRYEAVSFMDVKSTWRTVDHLSATACGCLG | ~0.8 | ~100 | – | – |
| rat mutated neublastin NBN106-N95K (non-PEGylated) (ligand) ARATDARGCRLRSQLVPVSALGLGHSSDELIRFRFCSGSCRRARSPHDLSLASLLGAGALRSPPGSRPISQPCCRPTRYEAVSFMDVKSTWRTVDHLSATACGCLG | – | – | – | specific activity in the KIRA ELISA [4]: ~10 nM |
| 3 X 10 kDa PEG NBN106-N95K: homodimer of NBN106-N95K conjugated to three 10 kDa PEG moieties (conjugate) ARATDARGCRLRSQLVPVSALGLGHSSDELIRFRFCSGSCRRARSPHDLSLASLLGAGALRSPPGSRPISQPCCRPTRYEAVSFMDVKSTWRTVDHLSATACGCLG | – | – | ++ | activity / potency in the KIRA ELISA (in words) (c-Ret): fully active |
| 4 X 5 kDa PEG NBN106-N95K (ligand, 5 kDa PEG on the amino-terminal amino acid and on Lys95 of each chain (PEGylated amino acids 1,1,95,95)) ARATDARGCRLRSQLVPVSALGLGHSSDELIRFRFCSGSCRRARSPHDLSLASLLGAGALRSPPGSRPISQPCCRPTRYEAVSFMDVKSTWRTVDHLSATACGCLG | ~1 | ~80 | – | – |
